system: Escherichia coli TOP10; experiment: shrunken log2 fold change of peptide-encoding DNA abundance (4.5 h post-induction vs induction); higher = less antimicrobial activity (less host growth inhibition); conditions: time post-induction: 4.5 h; library: site-saturation at positions 5, 18, 19, 20
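Further: peptides expressed intracellularly from a pBAD plasmid library in pooled LB shake-flask culture, induced with 0.3% L-arabinose, DNA abundance read by NGS, three biological replicates, DESeq2 with apeglm shrinkage.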

Sequence	shrunken log2 fold change
RRIRLRPPRLPRPRPRPKVPPRP	0.0509
RRIRCRPPRLPRPRPRPNKAPRP	-0.116
RRIRARPPRLPRPRPRPIMTPRP	0.0421
RRIRCRPPRLPRPRPRPFTWPRP	-0.188
RRIRCRPPRLPRPRPRPSNEPRP	-0.379
RRIRPRPPRLPRPRPRPEYVPRP	-0.0441
RRIRGRPPRLPRPRPRPIVAPRP	0.727
RRIRVRPPRLPRPRPRPVVFPRP	0.00477
RRIRIRPPRLPRPRPRPNGGPRP	-0.108
RRIRTRPPRLPRPRPRPMKEPRP	-0.164
RRIRIRPPRLPRPRPRPQFQPRP	-0.166
RRIRERPPRLPRPRPRPQVAPRP	-0.366
RRIRHRPPRLPRPRPRPQAYPRP	-0.451
RRIRTRPPRLPRPRPRPFYWPRP	-0.348
RRIRLRPPRLPRPRPRPMETPRP	0.483
RRIRERPPRLPRPRPRPLQQPRP	0.0643
RRIRPRPPRLPRPRPRPLTCPRP	-0.191
RRIRMRPPRLPRPRPRPKQEPRP	3.07
RRIRMRPPRLPRPRPRPEYIPRP	0.0145
RRIRNRPPRLPRPRPRPKVLPRP	-0.105

Sequence	shrunken log2 fold change
RRIRLRPPRLPRPRPRPCYMPRP	-0.308
RRIRMRPPRLPRPRPRPEQFPRP	0.216
RRIRTRPPRLPRPRPRPNCWPRP	0.0359
RRIRYRPPRLPRPRPRPDMSPRP	-0.0894
RRIRLRPPRLPRPRPRPRFAPRP	0.374
RRIRIRPPRLPRPRPRPRIFPRP	-1.13
RRIRKRPPRLPRPRPRPNVFPRP	0.154
RRIRNRPPRLPRPRPRPETAPRP	0.536
RRIRGRPPRLPRPRPRPPQQPRP	0.825
RRIRVRPPRLPRPRPRPDNQPRP	-0.0991
RRIRMRPPRLPRPRPRPNPCPRP	0.169
RRIRMRPPRLPRPRPRPLMGPRP	-0.0985
RRIRMRPPRLPRPRPRPHEHPRP	0.301
RRIRGRPPRLPRPRPRPWPFPRP	0.745
RRIRHRPPRLPRPRPRPYQHPRP	-0.0148
RRIRMRPPRLPRPRPRPPPPPRP	2.05
RRIRLRPPRLPRPRPRPWCIPRP	0.0272
RRIRCRPPRLPRPRPRPVYMPRP	-0.788
RRIRIRPPRLPRPRPRPRSWPRP	0.394
RRIRSRPPRLPRPRPRPIDLPRP	-0.546

Sequence	shrunken log2 fold change
RRIRCRPPRLPRPRPRPGYWPRP	0.196
RRIRYRPPRLPRPRPRPCDTPRP	-0.0977
RRIRGRPPRLPRPRPRPYHPPRP	-0.559
RRIRSRPPRLPRPRPRPITNPRP	0.266
RRIRARPPRLPRPRPRPHMCPRP	-0.174
RRIRVRPPRLPRPRPRPTMEPRP	-0.102
RRIRQRPPRLPRPRPRPGAPPRP	0.307
RRIRWRPPRLPRPRPRPRKDPRP	-0.0246
RRIRQRPPRLPRPRPRPQINPRP	-0.285
RRIRHRPPRLPRPRPRPFEQPRP	-0.283
RRIRPRPPRLPRPRPRPYRRPRP	-0.198
RRIRKRPPRLPRPRPRPGSCPRP	0.346
RRIRERPPRLPRPRPRPDLIPRP	-0.0979
RRIRERPPRLPRPRPRPPYPPRP	-0.32
RRIRDRPPRLPRPRPRPDLVPRP	1.16
RRIRFRPPRLPRPRPRPFIRPRP	-0.588
RRIRRRPPRLPRPRPRPTAQPRP	0.244
RRIRSRPPRLPRPRPRPWRYPRP	-0.336
RRIRTRPPRLPRPRPRPPVAPRP	0.428
RRIRTRPPRLPRPRPRPIDSPRP	-0.162
